The target of assay [1] is AAV-amyloid-453-587 (AAV2; human) (UniProt P03135).
In assay [2] the target is T1, purified αvβ3 integrin (CHEMICON) (UniProt P06756 31-1048; P05106 27-788).
T1 construct: also called soluble αvβ3; soluble receptor αvβ3
The experiment in a line: A20-capture ELISA, purified αvβ3 integrin 100 ng/well, normalised to A20-biot.

From patent publication US20130108658A1 (published 2013) come the findings set out here.

T1 sequence (P06756 31-1048, chain 1 of 2): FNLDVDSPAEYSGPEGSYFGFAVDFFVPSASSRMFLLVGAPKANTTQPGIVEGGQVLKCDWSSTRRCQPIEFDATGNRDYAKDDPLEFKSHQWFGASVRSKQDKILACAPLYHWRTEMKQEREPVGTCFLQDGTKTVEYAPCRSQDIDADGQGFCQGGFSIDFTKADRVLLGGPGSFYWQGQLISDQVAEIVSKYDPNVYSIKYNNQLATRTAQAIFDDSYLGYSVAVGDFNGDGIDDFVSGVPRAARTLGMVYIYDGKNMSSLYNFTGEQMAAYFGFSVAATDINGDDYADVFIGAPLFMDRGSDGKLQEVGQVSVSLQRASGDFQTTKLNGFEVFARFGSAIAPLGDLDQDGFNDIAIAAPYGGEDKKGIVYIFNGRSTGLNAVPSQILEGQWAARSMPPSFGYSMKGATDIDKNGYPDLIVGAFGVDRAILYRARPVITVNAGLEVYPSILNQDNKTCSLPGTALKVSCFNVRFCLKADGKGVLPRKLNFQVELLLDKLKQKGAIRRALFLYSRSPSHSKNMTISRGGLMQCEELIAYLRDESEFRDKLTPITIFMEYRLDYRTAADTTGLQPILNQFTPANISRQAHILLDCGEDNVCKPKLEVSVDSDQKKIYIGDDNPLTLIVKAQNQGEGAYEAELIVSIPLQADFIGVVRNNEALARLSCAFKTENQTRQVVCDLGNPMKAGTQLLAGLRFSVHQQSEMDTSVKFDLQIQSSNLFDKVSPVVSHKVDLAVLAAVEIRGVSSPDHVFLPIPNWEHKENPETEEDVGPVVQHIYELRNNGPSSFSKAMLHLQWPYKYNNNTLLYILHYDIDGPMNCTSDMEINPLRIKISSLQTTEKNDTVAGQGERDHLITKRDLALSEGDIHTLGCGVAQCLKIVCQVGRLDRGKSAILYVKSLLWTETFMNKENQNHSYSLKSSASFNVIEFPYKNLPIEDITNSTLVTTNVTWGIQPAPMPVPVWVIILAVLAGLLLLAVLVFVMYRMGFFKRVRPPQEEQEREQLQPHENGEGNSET
T1 sequence (P05106 27-788, chain 2 of 2): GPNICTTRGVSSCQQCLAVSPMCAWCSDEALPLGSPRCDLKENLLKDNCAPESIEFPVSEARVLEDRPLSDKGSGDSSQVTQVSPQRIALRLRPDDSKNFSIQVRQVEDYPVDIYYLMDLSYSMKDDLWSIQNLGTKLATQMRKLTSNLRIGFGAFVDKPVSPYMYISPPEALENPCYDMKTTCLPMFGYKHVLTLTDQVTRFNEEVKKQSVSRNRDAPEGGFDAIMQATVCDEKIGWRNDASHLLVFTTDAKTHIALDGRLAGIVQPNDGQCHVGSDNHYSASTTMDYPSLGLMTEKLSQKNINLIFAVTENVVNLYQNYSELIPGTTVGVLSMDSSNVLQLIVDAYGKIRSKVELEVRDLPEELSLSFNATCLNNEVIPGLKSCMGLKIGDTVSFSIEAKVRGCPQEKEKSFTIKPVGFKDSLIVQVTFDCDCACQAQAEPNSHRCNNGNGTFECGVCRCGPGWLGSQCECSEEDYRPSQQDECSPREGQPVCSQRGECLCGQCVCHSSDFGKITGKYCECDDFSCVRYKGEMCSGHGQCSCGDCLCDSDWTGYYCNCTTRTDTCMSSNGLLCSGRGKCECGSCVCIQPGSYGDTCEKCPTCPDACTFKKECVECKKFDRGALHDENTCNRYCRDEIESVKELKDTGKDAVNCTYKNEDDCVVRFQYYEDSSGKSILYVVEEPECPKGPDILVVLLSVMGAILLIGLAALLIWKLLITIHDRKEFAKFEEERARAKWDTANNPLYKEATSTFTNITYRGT

Molecule “anti-β-amyloid mAb 6E10 (CHEMICON) (antibody)” had a fold higher affinity against the I-587-insertion mutant in assay [1] of 2 fold.

B1: AAV2 RGD4C 453 A2 (other)
chain: MAADGYLPDWLEDTLSEGIRQWWKLKPGPPPPKPAERHKDDSRGLVLPGYKYLGPFNGLDKGEPVNEADAAALEHDKAYDRQLDSGDNPYLKYNHADAEFQERLKEDTSFGGNLGRAVFQAKKRVLEPLGLVEEPVKTAPGKKRPVEHSPVEPDSSSGTGKAGQQPARKRLNFGQTGDADSVPDPQPLGQPPAAPSGLGTNTMATGSGAPMADNNEGADGVGNSSGNWHCDSTWMGDRVITTSTRTWALPTYNNHLYKQISSQSGASNDNHYFGYSTPWGYFDFNRFHCHFSPRDWQRLINNNWGFRPKRLNFKLFNIQVKEVTQNDGTTTIANNLTSTVQVFTDSEYQLPYVLGSAHQGCLPPFPADVFMVPQYGYLTLNNGSQAVGRSSFYCLEYFPSQMLRTGNNFTFSYTFEDVPFHSSYAHSQSLDRLMNPLIDQYLYYLSRTNTPSGACDCRGDCFCATTTQSRLQFSQAGASDIRDQSRNWLPGPCYRQQRVSKTSADNNNSEYSWTGATKYHLNGRDSLVNPGPAMASHKDDEEKFFPQSGVLIFGKQGSEKTNVDIEKVMITDEEEIRTTNPVATEQYGSVSTNLQAGNAQAATADVNTQGVLPGMVWQDRDVYLQGPIWAKIPHTDGHFHPSPLMGGFGLKHPPPQILIKNTPVPANPSTTFSAAKFASFITQYSTGQVSVEIEWELQKENSKRWNPEIQYTSNYNKSVNVDFTVDTNGVYSEPRPIGTRYLTRNL
notes: Capsid particle of VP-1, VP-2 and VP-3; substitution positions count on wild-type AAV2 VP-1
Consider B1, for which the “fold increase of binding activity against RGD4C 453” value in assay [2] was about 50 fold.
